Test results reported in the supplement of paper PMC7125110.
± gives the standard error. For some assays here: This sample holds only a part of the variants without activity.

B1: glmS ribozyme (parent)
chain: AUAAAAGCGCCAGAACUACAGAAAUGUAGUUGACGAGGAGGAGGUUUAUCGAAUUUUCGGCGGAUGCCUCCAAA

Experiments:
Settings in all cases: with glucosamine-6-phosphate
glucosamine-6-phosphate [1] = variants of: B1; test: kcat; higher = faster cleavage; RNA array
Method in brief: (§1)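 Glucosamine-6-phosphate in HEPES/KCl/Mg(OAc)2 buffer, at 40 μM to 10 mM, was flowed over barcoded ribozyme variants transcribed in situ by E. coli RNA polymerase on sequenced MiSeq chips. Tracking was through a hybridised Cy3 probe at 37 °C. kobs, kcat and KM came from exponential decay fits and weighted Michaelis–Menten fits of normalised per-tile medians.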

glucosamine-6-phosphate [2] = variants of: B1; test: KM; higher = weaker cofactor use; RNA array
Method in brief: as §1

glucosamine-6-phosphate [3] = variants of: B1; test: self-cleavage kobs at 640 uM GlcN6P; higher = faster cleavage; RNA array
Method in brief: as §1

glucosamine-6-phosphate [4] = variants of: B1; test: self-cleavage kobs at 2500 uM GlcN6P; higher = faster cleavage; RNA array
Method in brief: as §1

glucosamine-6-phosphate [5] = variants of: B1; test: self-cleavage kobs at 10000 uM GlcN6P; higher = faster cleavage; RNA array
Method in brief: as §1

glucosamine-6-phosphate [6] = variants of: B1; test: self-cleavage kobs at 160 uM GlcN6P; higher = faster cleavage; RNA array
Method in brief: as §1

glucosamine-6-phosphate [7] = variants of: B1; test: self-cleavage kobs at 40 uM GlcN6P; higher = faster cleavage; RNA array
Method in brief: as §1

Variant	kcat (glucosamine-6-phosphate [1]) [s⁻¹]	KM (glucosamine-6-phosphate [2]) [µM]	self-cleavage kobs at 640 uM GlcN6P (glucosamine-6-phosphate [3]) [s⁻¹]	self-cleavage kobs at 2500 uM GlcN6P (glucosamine-6-phosphate [4]) [s⁻¹]	self-cleavage kobs at 10000 uM GlcN6P (glucosamine-6-phosphate [5]) [s⁻¹]	self-cleavage kobs at 160 uM GlcN6P (glucosamine-6-phosphate [6]) [s⁻¹]	self-cleavage kobs at 40 uM GlcN6P (glucosamine-6-phosphate [7]) [s⁻¹]
C16A U45G	0.000271 ± 2.9e-06	2200 ± 54	6.15e-05 ± 1.2e-05	0.000144 ± 3.4e-05	0.000222 ± 2.7e-05	–	–
A15U A48U	0.000133 ± 4.2e-05	–	–	–	4.87e-05 ± 9.2e-06	< 1e-05	–
G29A U30A	0.00133 ± 0.00052	–	0.000149 ± 2.4e-05	0.000752 ± 0.00014	0.000862 ± 0.00016	5.7e-05 ± 2e-05	2.98e-05 ± 1.5e-05
G29A U30C	3.24e-05 ± 8.4e-06	–	–	4.91e-05 ± 1.5e-05	2.58e-05 ± 1e-05	–	–
G29C U65A	0.000197 ± 2.5e-05	2100 ± 780	3.62e-05 ± 1.2e-05	0.00013 ± 1.8e-05	0.000157 ± 1.5e-05	–	–
C16U G63U	1.26e-05 ± 2.3e-06	–	–	–	–	–	–
C16A U47G	0.000198 ± 3e-05	631 ± 230	9.31e-05 ± 7.8e-06	0.000184 ± 2.7e-05	0.000186 ± 2.3e-05	6.15e-05 ± 1.2e-05	–
A15U G35A	< 1e-05	–	–	–	< 1e-05	–	< 1e-05
U31C G40U	0.000615 ± 0.00011	2870 ± 920	0.000122 ± 2.1e-05	0.000236 ± 4.1e-05	0.000515 ± 6.3e-05	4.05e-05 ± 1.4e-05	–
